This is an account of results in PMC5301497, “Dimerisation induced formation of the active site and the identification of three metal sites in EAL-phosphodiesterases” (Scientific Reports, 2017).

Data set [1] concerns the molecule itself. As to the kind of experiment: crystal structure; MucR^EAL with c-di-GMP/Mg^2+, P2_(1), 2 molecules/AU, 2.27 Å; Morpheus Buffer System 1 pH 6.5, 21 °C.
Data set [2] deals with the molecule itself. The experiment in a line: crystal structure; PA3825^EAL metal-free apo, tetragonal crystal P4_(3)2_(1)2, 1 molecule/AU, 1.60 Å.

B1: EAL domain of MucR (residues 425–685) (domain or fragment, Pseudomonas aeruginosa PAO1, UniProt Q9I310 425-685, looked up)
chain: SSMNANAQEQLQLLHDLRQALERRQLVLHYQPKVLAPNGPMIGVEALLRWEHPQHGLITPGQFLPLAEKTGLIVQIGEWVLDEACRQMRLWLDGGHADWNIAVNLSALQFAHAGLVDSVRNALLRHSLEPSHLILEVTESTAMRDADASLVILEQLSAMGVGISIDDFGTGYSSLLYLKRLPASELKIDRGFINELAHDSDDAAIVSAIVALGRTLNLKIVAEGVETEAQQEFLTRLGCNSLQGFLLGRPMPAEQLLASVA
notes: MucR (PA1727), Pseudomonas aeruginosa PAO1, EAL phosphodiesterase domain, residues 425-685; Cloned into pET-28a through NdeI and HindIII, which would give an N-terminal His6 tag with a thrombin site (surmised); no cleavage of the tag is described; Seen as the 'classic dimer' in the crystal, 2 molecules in the asymmetric unit; also called MucR^EAL; MucR-EAL; source: E. coli BL21 DE3, purified …
Consider B1, for which the binding result in data set [1] was “binds”.

B2: EAL domain of PA3825 (residues 255–517) (domain or fragment, Pseudomonas aeruginosa PAO1, UniProt Q9HXH7 255-517, looked up)
chain: SRRVASPSSELRRALEANEFIPYYQPLSPGQGGRWIGVEVLMRWRHPREGLIRPDLFIPFAERSGLIVPMTRALMRQVAEDLGGHAGKLEPGFHIGFNISATHCHELALVDDCRELLAAFPPGHITLVLELTERELIESSEVTDRLFDELHALGVKIAIDDFGTGHSSLAYLRKFQVDCLKIDQSFVARIGIDTLSGHILDSIVELSAKLDLDIVAEGVETPEQRDYLAARGVDYLQGYLIGRPMPLESLLSSLTVQEGQGAS
notes: PA3825, Pseudomonas aeruginosa PAO1, EAL phosphodiesterase domain, residues 255-517; The residue numbers of the results (Glu39, Asp160, Asp161, Glu217, loop 160-170) cannot count on the full-length protein; they seem to count on the crystallised domain or the PDB entries; Cloned into the popinF vector; Seen as a 'closed dimer' in the crystal; also called PA3825^EAL; PA3825-EAL; source: E. coli …
B2: the binding result in data set [2] is on record as “binds”.
